Patent publication US20060251734A1

What was measured:
[1] = tested on: T1, mutated cdc2 peptide with Phe-15 substituted for Tyr-15 (IEKIGEGTFGVVYK)
T1 sequence: IEKIGEGTFGVVYK

[2] = molecular target: cdc2 peptide (amino acids 7 to 20; …); assay: cell-based or functional assay

phosphorylation of the cdc2 peptide by anti-Lyn immune complexes from MMC-treated cells against control cells [2] | Substance | phosphorylation of the mutated cdc2 peptide (Tyr-15 to Phe-15) by anti-Lyn immune complexes [1]
 | p56/p53^lyn tyrosine kinase | there was little phosphorylation of the mutated cdc2 peptide with anti-Lyn complexes from control or MMC-treated cells
2 fold | p56/p53^lyn tyrosine kinase (from UniProt P07948 2-512) (enzyme) | 
